The text below walks through data of the domain aggregation screens of Martell et al. (2025).

The data set is described as follows: soluble fraction after stress (log2 fold change); higher = more stays soluble; pooled small domains, quantitative proteomics. Particulars: stress: pH 4. The procedure, abridged: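 High-throughput quantitative proteomics was run on pooled custom libraries of small protein domains following pH 4 stress. Fold changes are on a log2 scale; higher values mean more of a domain remained soluble. The fold change in soluble amount is taken as a measure of aggregation propensity.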
“HMAISEEEATNLALERVPGASAQDLRIQLEFDDGVQKYEGDIIYDGKEYDFEIDANTGTFLEWSE”: the “soluble fraction (log2)” value is 0.22.

For “HMAISSADRIVAELRTWISGASPGTQLPSSRTLAARYGASPVTVQKALHTLAGMGLVEARPGAGTFVRRQS”, the “soluble fraction (log2)” value was at least 0.43.

For “HMAITVPEGATLSDAAVLLKQAGAVRSADAFLTRAKVFGGSTPIKAGEFVIPVQASNKDILAILQGGK”, the “soluble fraction (log2)” value was -0.193.

Turning to “HMAKIATTVYEQIRTAILNGELSNSERLVEEDLAVSMGISRTPVREALRRLAAEGLVDVSPNRGARVAE”, the “soluble fraction (log2)” value is -0.778.

“HMAKINFTSDAIDIGMVTRNDIEMLSFYQNVLGLTKDMEIPFPGLGVVNKLSFGSGFIKILVL”: the “soluble fraction (log2)” value is -0.272.

With “HMAKLGITQREQEVLQLLVTGKTYKEIAAELFISLPTVKTHVSNIYSKAKVRNRLELSNLINYI”, the “soluble fraction (log2)” value was -1.22.

Consider “HMAKNYYEILGLKSDATLPEIKKAFKKLSKKFHPDKNRDDDGYFESMFKSINEAYQVLIDEDKRATFDSHH”, for which the “soluble fraction (log2)” value was determined as 0.166.

Take “HMAKPAALLFEHRFDGMAEMRFRENIVKNDDGSYTYDEYFLSMLDRAGLEKIVQENMEVWIAYAKQ”: the “soluble fraction (log2)” value is -1.42.

For the sequence “HMAKPVKSPLPGSVIKVAVKVGQQIKRGDLLLTLESMKMENSILAEKDGVVKNIHVQAGQSVMQDDLLLDI”, the “soluble fraction (log2)” value was -0.957.

Consider “HMAKPVNISAEPYHYDPTRFRVTFELPRLSDQPRKRIRKVAPAGLDREQALAWAKRLEREVLHELLR”, for which the “soluble fraction (log2)” value is -0.144.

As to “HMAKVSVNIILKDGVDQTTFVNDVTSNTEVDLKNQLISLPQMVVLSVEEDYINTLKSHSSISILELDE”, the “soluble fraction (log2)” value is -0.541.

As for “HMALALDDLFDRYEQLQDQSLGDKTEEGQELRAMIRAYIEQEGLSVRVTRSTTNRELLELIEQEMEG”, the “soluble fraction (log2)” value is -0.703.

Regarding “HMALENTDLYAHLRLSHTASVPEIQAALSARVKHMPLQTWLLARKWLLHPRLRERYDGMWSVRFGA”, the “soluble fraction (log2)” value was -0.136.

As for “HMALGRTGEVYLPIPAGRAGHGKISITLQGALREVDAVTAGEALPRGTSVRVVDVAGNGVLLVEK”, the “soluble fraction (log2)” value is 0.32.

As to “HMALHDTLSYEEYLDLGLNGKADSAEKRELVAHALHLGRPNAKTLYKRLNMLQLNRKDVAALLEQ”, the “soluble fraction (log2)” value was determined as 0.299.

As for “HMALHLPTTTINGRQYYYFKSKEKITVYGLSKRLGLTRQEIVEHNPSAVDGIKRGSTLYFPVDEFAD”, the “soluble fraction (log2)” value was -0.074.

With “HMALLKRQDEILMYLYTQNKWITGNELAQLFHVSLRTIRNDISFINTEKSNSVLSNRNKGYHIAKDFVYNE”, the “soluble fraction (log2)” value was -0.0758.

As to “HMALPDSEKRQWLVDEVNERGLKLPDDVLEYLFARVGRSQAHLVDVIEKLDFESLAQSRKLTIPFVREVLK”, the “soluble fraction (log2)” value is -0.753.

“HMALPRYFFRTRENGAVLFKTPVNNHQNRLEMHQIAAINIRNETVKPLGDTVLTDEETELIADWMRERKTV”: the “soluble fraction (log2)” value was -0.596.

Consider “HMALSVRNRMSDLLRMLGDGEFHRFENLFSLEEGRHGIVVTFLAMLELAKEQLVEISQGESLAPIYLKSLA”, for which the “soluble fraction (log2)” value is -0.403.

For “HMAMDVKEVLLPGVGLRYEFDNSDGDRIGVIAKRSGDFEVVRYTAADRDAAQPMFRLTDEEADALAQILGA”, the “soluble fraction (log2)” value was -0.487.

For “HMAMDYYAIGQRIRKFRKAHDWSQEELAEKVEISTTHMSHIETGSTKLSLPVLVSLANVLDVRTDDLLF”, the “soluble fraction (log2)” value was -0.272.

With “HMAMKFQDIVRQKRKELGLTQEQAARRLGVSPAAVSKWESGQSLPDTPLFAPLARLLHTDLNTLLSFE”, the “soluble fraction (log2)” value is -0.34.

As to “HMAMTQNVDLAGRIVFNEKKEEVFNFGKHKGRSVAEVFEKEPSYYDWMLKGDFPAETKQVLTALRLRGLS”, the “soluble fraction (log2)” value is -0.64.

Take “HMAMTRTEYLNQLKHYLKRLPHTDYEEAMDYFKEYFEEAGPENEAQVIQDLGNPKEAAYEILSQLL”: the “soluble fraction (log2)” value is -0.615.

For the sequence “HMANDNFPLKLGSKGPRVLQLKTMLIQSLSNDALPKGRSSDAFDSELEALLSRNNLPTVIDETNFRVLTK”, the “soluble fraction (log2)” value was 0.0149.

Turning to “HMANFGSILRNLRISRDITQSELAAKLGVSRSTVGMYETGAREPDFEAMEAIADTFNVDMDYLVGRSQ”, the “soluble fraction (log2)” value is -0.326.

On to “HMANLAQITKTNAVALALKDVGAYNSEDLMKFIDLDKVVLGEDGKPQLEDTINSLKESSPYLFQ”, for which the “soluble fraction (log2)” value was -0.843.

“HMANMTAKQINMFGDKLSRDKDFQSYYIAKSGDSREQYAQDIKGKLLDPFYVNAWMPYLEKIGFVPS”: the “soluble fraction (log2)” value was determined as 0.106.

Take “HMANPEFAGYINGKPYFGPTHQHRGVKMLGATHTRNPHPLVWDSIAESLANYDSRFRWSGGQIL”: the “soluble fraction (log2)” value is -0.203.

With “HMANTAKVNVDTANLRETADENSKILKQLSLNDNLEVVEETGDWYKVKNSNVTGYVRKDLVTVEN”, the “soluble fraction (log2)” value came out at 0.244.

“HMANTLDPMDLKQIISLHLDGFSNRKIGATLGISRNTVNTYMRLFSVSDYALKELLTLDNATLDKLFPS”: the “soluble fraction (log2)” value was -0.603.

For “HMANYYEILGVKHDATEAEIKAAYKQAAKSAHPDAGGSNEKMQEVNAAWEVLGNAQKRAEYDARMA”, the “soluble fraction (log2)” value amounted to 0.349.

Take “HMAPAGGITRQDLFAWGLMGGEGSREKRQQLKKSLGLPSHLGTSGFLDALNLIATRDQVEALLHK”: the “soluble fraction (log2)” value is at least 0.43.

For “HMAPAILTVQVKPDKIREIIGPGGKMIRMIQSETNTRVEVDDSGLVKIAAVSKEEGEAALKMVSDITME”, the “soluble fraction (log2)” value was -0.177.

On to “HMAPDAPDGFVHRWIRAEMLGQEDKSNVHRRMQEGYELVRADEYPDSDLPVAEGRYAGIIGVGGLLLARF”, for which the “soluble fraction (log2)” value is -0.268.

In the case of “HMAPDDTAVWSAFIGWFRTAPDGPNPLGAYAAKLGEEGLDAAEVGRRMTVIVRLFAEKPEGAEVFYDRTYA”, the “soluble fraction (log2)” value is -0.456.

With “HMAPDYYALLGVPRNATTAEVRKAFRGKALEQHPDRGGDEESFRLLSKAYDVLSDSERRKYYDRTG”, the “soluble fraction (log2)” value stood at 0.14.

As for “HMAPEKLVHELVGLSLRAGNLDLLAATLSAHKTVLSKESTAEYVKAGLAIEPNHLPLRVLAEQDLGWS”, the “soluble fraction (log2)” value is -0.936.

On to “HMAPFVIQQGQDVRLISKGPGFAVSNDGKALTNAAEGQLARARTANGQTVSGIARQGGIIEIA”, for which the “soluble fraction (log2)” value was -0.068.

For the sequence “HMAPGIGDSKYFSHIYEMKHIDTIIDNDKGDRLIEHFEIQDTPFIFTKHWTSAFGFSKRQQEIITDYLSYF”, the “soluble fraction (log2)” value was -0.0653.

On to “HMAPGVHVEALLPYTAGSLVSQIREYGNVDAVEYRDTGILLQADVDERLAAQIMDQALEDPV”, for which the “soluble fraction (log2)” value was -1.03.

As to “HMAPLADQIVDLLKEHDGFLPLHDNSSPEDIRATVGTSKKAFKQAIGGLFREKRIVIGPTGIRLIS”, the “soluble fraction (log2)” value worked out at 0.146.

In the case of “HMAPLATIHVSSLSQKPFYLYGTFEDRRGNHLFFLEQIMGENKSIPVAMPSSAINPKIHASLTPPKG”, the “soluble fraction (log2)” value is -0.0804.

In the case of “HMAPLQDENGDLTFSYNGKTYTVNVNSEEDRNSFAEDFNKENGKKFSWFKERAGLQHYVFYDTEM”, the “soluble fraction (log2)” value is -0.918.

As to “HMAPLVTLEADGNGAVKLSNLAGHSIREVAGALGGAGLSLIPVGSGTSWKQNPAPGTVLHSGDTVTVYF”, the “soluble fraction (log2)” value turned out to be 0.22.

On to “HMAPPIQQQVESLMNSFAKIGVTVPMLESRLQHAMSAVTANELVMLRKIGASIRDGFATVAEQFPA”, for which the “soluble fraction (log2)” value is 0.0598.

As for “HMAPPPPEGYIHRWIRESVMGFDDKKNLSARIREGFELVRAEEYPDYEAPTVMDGKHAGVIANGGLLLARF”, the “soluble fraction (log2)” value is -0.236.

Take “HMAPQQARAAKTRVKLLDAAATVVRRDGIQAMTLARVAEEAGVSKGGLLHHFGSKEELVTGMLEQ”: the “soluble fraction (log2)” value is -0.402.

As for “HMAPRASDALTERELDVLRVVADGASVAEAAEMLVVSRETVKKHLGNIYAKLGVHSKMQAVALLREEGV”, the “soluble fraction (log2)” value is -1.27.

Consider “HMAPRKNIRLLRAAQDKAAAEGDHETVDAIRGQIAALIETLPVQYREEYLLQEKGRENGLKLAIENAAK”, for which the “soluble fraction (log2)” value was -0.214.

“HMAPSLQISLKQAIITAQQQHPGSKALNADFDGARGTPRYVIETLLPTGELRELTIDAQSGQVMEDHPDR”: the “soluble fraction (log2)” value was 0.198.

In the case of “HMAPSPEGAAILRESVESVARDQVDRVALTMTARGYTTAEIAAALMVDRSTISRRLYAMRDRYHAQQDNAQ”, the “soluble fraction (log2)” value is -0.666.

As to “HMAPSVNEVAWAQKIIDAHAEAAAAGKGLVVVDGKLIENLHVEEAKQLLSLSDAIAKNDASNG”, the “soluble fraction (log2)” value was -0.31.

Turning to “HMAPTGTDRQTPHTRDELYLVLSGTGTFVNGDARHPFGPGDALFVPAGAEHRFEDFSDDFRTWVVFYGAEG”, the “soluble fraction (log2)” value is -0.734.

Take “HMAPVVAILTRQLPLPQAQQLAGQTALVRVVKGGPGNEAELEFAGQNIQVKLPPGRQLTAGEMVTVAFALS”: the “soluble fraction (log2)” value was -0.0882.

As to “HMAQASEPMLALIRLKWWEEQINSPVKGDSLPLLSQLNSHISAGYLSRSQVTSLIQRWQDYA”, the “soluble fraction (log2)” value was -1.18.

For “HMAQFNELLFELRQDRKMTQEDLAKVLFVTSGTISNYENGVHLPDIEKLISLADFFGVTTDYLLG”, the “soluble fraction (log2)” value was -0.726.

As to “HMAQLKYEQIKSYLQAEAVKPESATRMPTVRELMRRFNVSLVTVNRALSELEHAKVIVRRQGAGIVAAQ”, the “soluble fraction (log2)” value was found to be 0.0424.

On to “HMAQLPADMSRVKSADVSDAQLREFVQKAQASGQTETQLFREFSRRGMPTNEINILRSRMVGLQNN”, for which the “soluble fraction (log2)” value was 0.0928.

As to “HMAQLPPTATARATSDVSGLTASAALRTLLEQGFVPQIHGSGKVSRQHPPAGTLLEPGSTIQLFLEPS”, the “soluble fraction (log2)” value was at least 0.43.

Regarding “HMAQLSDMLTYLRKRKGLSQQELANTLKISRSAIGMYETGKREPDLETLEVFADFYNVDMNTLTGKA”, the “soluble fraction (log2)” value is 0.192.

As for “HMAQNILPGQKNAIKSLATSAGFSQQELDSYLSQNYGKTLNNLSQKEGASLISGLQDGSIKKP”, the “soluble fraction (log2)” value stood at 0.0359.

For “HMAQPIPSGSDIREAREAAGMNLRDFARMVGGGAIGTWSHYETGKPIRVKSISPEVWQRVRDFILQHGK”, the “soluble fraction (log2)” value stood at 0.036.

For “HMAQRAADEARTHEILGLLRQARAALDHGGTARAARLRASIAEKLPAAPALPAWFARQLEQVDSQLAELQD”, the “soluble fraction (log2)” value is -0.568.

For “HMAQRFDLGDKLNPQSSEFEYLGTSSRTGVSTYRYKNVPTQLFFGRQIGDIVVGVRRGMITLTIYNL”, the “soluble fraction (log2)” value was 0.146.

Turning to “HMAQSTALVNLAQAEINKRGLTQTEVQARLSEEGINVNSISPAEYPKYQKQILSILDQMQKEKQLSKEV”, the “soluble fraction (log2)” value worked out at 0.359.

Turning to “HMAQVDAVQQVLQAFPALRSGQSQHLSQVVAALRQRGILTVGTKTTAWFAQWASVFQLLPLQVPNRIRYQS”, the “soluble fraction (log2)” value amounted to 0.2.
